According to US20040018971A1 (published 2004):
Where no end group is shown, it is not given here. [ ]: non-standard residue; d: D form. Abu = CC[C@H](N)C(=O)O

What was measured:
[1] = target: T1, HLA-A*0301 (purified HLA class I molecule) (human); experiment: inhibition of 125I probe peptide binding to purified HLA; ratio to standard peptide
T1 construct: also called A3

[2] = target: HLA-A*1101 (purified HLA class I molecule) (human); experiment: as above
[3] = target: HLA-A*3101 (purified HLA class I molecule) (human); experiment: as above
[4] = target: HLA-A*3301 (purified HLA class I molecule) (human); experiment: as above
[5] = target: HLA-A*6801 (purified HLA class I molecule) (human); experiment: as above
[6] = target: HLA-DR3 (DRB1*0301), purified HLA class II molecule (human); experiment: competition with 125I-labelled probe peptide, purified HLA-DR
HLA-A*0201 [7] = target: T2, HLA-A*0201 (human); experiment: competition with 125I-labelled probe peptide for purified HLA, gel filtration
T2 construct: also called HLA-A2.1

HLA-A*0202 [8] = target: HLA-A*0202 (human); experiment: as above
HLA-A*0203 [9] = target: HLA-A*0203 (human); experiment: as above
HLA-A*6802 [10] = target: HLA-A*6802 (human); experiment: as above
HLA-A*0206 [11] = target: HLA-A*0206 (human); experiment: as above
HLA-DR1 (DRB1*0101) = HLA-DR1 (DRB1*0101) (human); experiment: competition with 125I-labelled probe peptide on purified HLA-DR, gel filtration; IC50 of standard peptide / IC50 of test peptide
HLA-DR4w4 (DRB1*0401) = target: T3, HLA-DR4w4 (DRB1*0401) (human); experiment: as above
T3 construct: Purified HLA class II molecule

HLA-DR7 (DRB1*0701) = target: T4, HLA-DR7 (DRB1*0701) (human); experiment: as above
T4 construct: Purified HLA class II molecule

HLA-DRB1*0101 = target: T5, HLA-DRB1*0101 (human); experiment: competition with 125I-labeled standard peptide, purified HLA-DR, gel filtration
T5 construct: also called DR1

HLA-DRB1*0401 = target: T6, HLA-DRB1*0401 (human); experiment: as above
T6 construct: also called DR4w4

HLA-DRB1*0701 = target: T7, HLA-DRB1*0701 (human); experiment: as above
T7 construct: also called DR7

[12] = target: HLA-DR1 (DRB1*0101), purified HLA class II molecule (human); experiment: competition with 125I-labelled probe peptide, purified HLA-DR
[13] = target: HLA-DR4w4 (DRB1*0401), purified HLA class II molecule (human); experiment: as above
[14] = target: HLA-DR7 (DRB1*0701), purified HLA class II molecule (human); experiment: as above
HLA-A*0201 [15] = target: T8, HLA-A*0201 (human); experiment: competition with 125I probe peptide for purified HLA
T8 construct: also called HLA-A2.1

HLA-A*0202 [16] = target: HLA-A*0202 (human); experiment: as above
HLA-A*0206 [17] = target: HLA-A*0206 (human); experiment: as above
HLA-A*6802 [18] = target: HLA-A*6802 (human); experiment: as above
HLA-A*0203 [19] = target: HLA-A*0203 (human); experiment: as above
HLA-A*6801 = HLA-A*6801 (human); experiment: competition with 125I-labelled standard peptide for purified HLA; gel filtration

## GTQRCEKCSK (also called Her2/neu.327 (10-mer)) [HER2/neu peptide, position 327, 10 amino acids]
[1]
  relative binding ratio: 0.021 ratio (IC50 standard / IC50 test)
[2]
  relative binding ratio: 0.61 ratio (IC50 standard / IC50 test)
[3]
  relative binding ratio: 0.014 ratio (IC50 standard / IC50 test)
[4]
  relative binding ratio: 0.0012 ratio (IC50 standard / IC50 test)
[5]
  relative binding ratio: 0.01 ratio (IC50 standard / IC50 test)

## RSLLEDDDMGDLVDA (also called Her2/neu.1006) [HER2/neu DR supermotif exemplary 15-mer RSLLEDDDMGDLVDA (position 1006)]
[6]
  relative binding ratio: 0.008 ratio (IC50 standard / IC50 test)

## KTFGSLAFV [Her2/neu.369T2V9]
HLA-A*0201 [7]
  IC50: 35 nM
HLA-A*0202 [8]
  IC50: 13 nM
HLA-A*0203 [9]
  IC50: 1010 nM
HLA-A*6802 [10]
  IC50: 17 nM

## VLIQRNPQV [Her2/neu.153V9]
HLA-A*0201 [7]
  IC50: 55 nM
HLA-A*0202 [8]
  IC50: 768 nM
HLA-A*0203 [9]
  IC50: 135 nM
HLA-A*0206 [11]
  IC50: 385 nM

## ETELVEPLTPSGAMP (also called Her2/neu.693) [HER2/neu peptide ETELVEPLTPSGAMP (position 693)]
HLA-DR1 (DRB1*0101)
  relative binding ratio: 0.006 ratio
HLA-DR4w4 (DRB1*0401)
  relative binding ratio: -0.0025 ratio
HLA-DR7 (DRB1*0701)
  relative binding ratio: -0.0013 ratio

B1: HER2/neu DR supermotif exemplary peptide LLVVVLGVVFGILIK (position 662) (peptide)
peptide: LLVVVLGVVFGILIK
notes: synthetic 15-mer; also called Her2/neu.662
HLA-DRB1*0101
  relative binding ratio: -0.0008 ratio (standard IC50 / test IC50)
HLA-DRB1*0401
  relative binding ratio: -0.0025 ratio (standard IC50 / test IC50)
HLA-DRB1*0701
  relative binding ratio: 0.0019 ratio (standard IC50 / test IC50)

## TQLFEDNYALAVLDN (also called Her2/neu.105) [HER2/neu DR supermotif exemplary 15-mer TQLFEDNYALAVLDN (position 105)]
[12]
  relative binding ratio: 0.053 ratio (IC50 standard / IC50 test)
[13]
  relative binding ratio: -0.0025 ratio (IC50 standard / IC50 test)
[14]
  relative binding ratio: 0.016 ratio (IC50 standard / IC50 test)

## VCPLHNQEVTAEDGT (also called Her2/neu.314) [HER2/neu DR supermotif exemplary 15-mer VCPLHNQEVTAEDGT (position 314)]
[12]
  relative binding ratio: -0.0004 ratio (IC50 standard / IC50 test)
[13]
  relative binding ratio: -0.0025 ratio (IC50 standard / IC50 test)
[14]
  relative binding ratio: -0.0013 ratio (IC50 standard / IC50 test)

## GTDMKLRLPASPETH (also called Her2/neu.28) [HER2/neu peptide GTDMKLRLPASPETH (position 28)]
HLA-DR1 (DRB1*0101)
  relative binding ratio: 0.001 ratio
HLA-DR4w4 (DRB1*0401)
  relative binding ratio: -0.0025 ratio
HLA-DR7 (DRB1*0701)
  relative binding ratio: -0.0013 ratio

## IKVLRENTSPKANKE (also called Her2/neu.752) [HER2/neu peptide IKVLRENTSPKANKE (position 752)]
HLA-DR1 (DRB1*0101)
  relative binding ratio: -0.0005 ratio
HLA-DR4w4 (DRB1*0401)
  relative binding ratio: -0.0032 ratio
HLA-DR7 (DRB1*0701)
  relative binding ratio: -0.0011 ratio

## YLIMVKCWMV [Her2/neu.952L2V10]
HLA-A*0201 [7]
  IC50: 13 nM
HLA-A*0202 [8]
  IC50: 56 nM
HLA-A*0206 [11]
  IC50: 18 nM
HLA-A*6802 [10]
  IC50: 84 nM

## AT[Abu]RWGLLV [Her2/neu.5.T2B3V9 ATBRWGLLV]
HLA-A*0201 [15]
  IC50: 16.7 µM
HLA-A*0202 [16]
  IC50: 215 nM
HLA-A*0206 [17]
  IC50: 2180 nM
HLA-A*6802 [18]
  IC50: 1.74 µM

## AV[Abu]RWGLLV [Her2/neu.5V2B3V9 AVBRWGLLV]
HLA-A*0201 [15]
  IC50: 10 µM
HLA-A*0202 [16]
  IC50: 215 nM
HLA-A*0203 [19]
  IC50: 141 nM
HLA-A*0206 [17]
  IC50: 2180 nM
HLA-A*6802 [18]
  IC50: 4.71 µM

## AM[Abu]RWGLLV [Her2/neu.5M2B3V9 AMBRWGLLV]
HLA-A*0201 [15]
  IC50: 0.036 µM
HLA-A*0202 [16]
  IC50: 473 nM
HLA-A*0203 [19]
  IC50: 16 nM
HLA-A*0206 [17]
  IC50: 726 nM

B2: HER2/neu DR supermotif exemplary peptide ITDFGLARLLDIDET (position 861) (peptide)
peptide: ITDFGLARLLDIDET
notes: synthetic 15-mer; also called Her2/neu.861
HLA-DRB1*0101
  relative binding ratio: 0.0048 ratio (standard IC50 / test IC50)
HLA-DRB1*0401
  relative binding ratio: -0.0032 ratio (standard IC50 / test IC50)
HLA-DRB1*0701
  relative binding ratio: -0.0011 ratio (standard IC50 / test IC50)

## MVLESILRR [Her2/neu.889.V2]
HLA-A*6801
  IC50: 22 nM
